{"source": "paper PMC11663931", "binders": {"B1": {"name": "purified myristoylated bovine GCAP1 (guanylyl cyclase activating protein 1) (natural protein)", "chain": "MGNIMDGKSVEELSSTECHQWYKKFMTECPSGQLTLYEFRQFFGLKNLSPWASQYVEQMFETFDFNKDGYIDFMEYVAALSLVLKGKVEQKLRWYFKLYDVDGNGCIDRDELLTIIRAIRAINPCSDSTMTAEEFTDTVFSKIDVNGDGELSLEEFMEGVQKDQMLLDTLTRSLDLTRIVRRLQNGEQDEEGASGRETEAAEADG", "modifications": "N-myristoylated"}}, "key": {"[1]": {"target": "human recombinant RetGC1 (retinal membrane guanylyl cyclase 1) (human) (UniProt Q02846)", "sequence (Q02846 52-1103)": "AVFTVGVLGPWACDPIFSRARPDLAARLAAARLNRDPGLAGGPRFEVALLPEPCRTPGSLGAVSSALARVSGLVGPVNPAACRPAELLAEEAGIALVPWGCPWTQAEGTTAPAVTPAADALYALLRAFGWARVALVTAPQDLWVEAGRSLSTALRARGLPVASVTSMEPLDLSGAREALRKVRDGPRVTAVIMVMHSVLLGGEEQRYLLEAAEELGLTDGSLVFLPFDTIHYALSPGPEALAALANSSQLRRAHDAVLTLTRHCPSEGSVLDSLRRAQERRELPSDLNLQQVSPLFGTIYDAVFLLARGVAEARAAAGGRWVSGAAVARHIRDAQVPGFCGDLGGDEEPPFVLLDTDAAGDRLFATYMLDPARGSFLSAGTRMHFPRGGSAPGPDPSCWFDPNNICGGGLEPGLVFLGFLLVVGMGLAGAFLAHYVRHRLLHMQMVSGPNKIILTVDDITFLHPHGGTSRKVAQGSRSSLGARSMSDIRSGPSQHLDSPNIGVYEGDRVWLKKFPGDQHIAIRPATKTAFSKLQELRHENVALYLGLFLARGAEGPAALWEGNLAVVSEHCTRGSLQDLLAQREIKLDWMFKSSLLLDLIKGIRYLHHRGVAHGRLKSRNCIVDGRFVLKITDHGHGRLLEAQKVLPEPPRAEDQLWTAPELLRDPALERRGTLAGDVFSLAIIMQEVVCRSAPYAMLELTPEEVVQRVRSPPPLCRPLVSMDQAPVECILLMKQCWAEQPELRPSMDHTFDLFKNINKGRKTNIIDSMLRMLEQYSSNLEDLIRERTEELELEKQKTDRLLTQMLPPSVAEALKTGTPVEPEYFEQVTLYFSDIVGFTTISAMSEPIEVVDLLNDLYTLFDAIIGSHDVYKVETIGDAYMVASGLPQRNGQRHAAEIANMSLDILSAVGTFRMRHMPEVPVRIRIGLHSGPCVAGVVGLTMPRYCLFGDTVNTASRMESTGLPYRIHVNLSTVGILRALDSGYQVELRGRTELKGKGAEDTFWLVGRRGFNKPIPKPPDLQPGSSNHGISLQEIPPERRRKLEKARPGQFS"}, "[2]": {"target": "human recombinant RetGC1 (retinal membrane guanylyl cyclase 1) (human) (UniProt Q02846)", "remark": "listed apart in the source"}}, "data": [{"binder": "B1", "values": [{"measurement": "K1/2 of GCAP1 for activating the guanylyl cyclase activity of recombinant RetGC1, with additional 50 mM NaCl instead of bicarbonate (pilot measurement, not shown)", "setting": "[1]", "result": 2, "unit": "µM"}, {"measurement": "K1/2 of GCAP1 for activating the guanylyl cyclase activity of recombinant RetGC1 in HEK293 membranes (hyperbolic fit, 0-10 μM GCAP1), with 50 mM NaHCO3", "setting": "[2]", "result": 2.9, "unit": "µM"}, {"measurement": "K1/2 of GCAP1 for activating the guanylyl cyclase activity of recombinant RetGC1 in HEK293 membranes (hyperbolic fit, 0-10 μM GCAP1), without NaHCO3", "setting": "[2]", "result": 1.47, "unit": "µM"}]}]}
